This note sets out measurements from US11634477 (dated 2023).

For one assay, the target named is SARS-CoV-2 RBD (SARS-CoV-2, UniProt P0DTC2). Description: ELISA.
The target in another assay is SARS-CoV RBD (SARS-CoV, UniProt P59594). Description: ELISA.

B1: C208 (antibody, V domains shown)
VH: EVQLVQSGAEVKKPGESLKISCKGSGYSFTSYWIGWVRQMPGKGLEWMGIIYPGDSDTRYSPSFQGQVTISADKSISTAYLKWSSLKASDSAMYYCARGPNLQNWFDPWGQGTLVTVSS
VL: EIVLTQSPGTLSLSPGERATLSCRASQSVSGSYLAWYQQRPGQAPRLLIYGASSRATGIPDRFSGSGSGTDFTLTISRLEPEDFAVYYCQQYGSSLTFGGGTKVEIK
B1: the EC50 with SARS-CoV-2 RBD and in the assay with SARS-CoV RBD was above 1000 ng/mL each time.

B2: C128 (antibody, V domains shown)
VH: EVQLLESGGGLVQPGGSLRLSCAASGFTFSTYAMSWVRQAPGKGLEWVSTITGSGRDTYYADSVKGRFTISRDNSKNTLFLQLNSLRAEDAAVYSCANHPLASGDDYYHYYMDVWGKGTTVTVSS
VL: EIVLTQSPGTLSLSPGERATLSCRASQSVNSRQLAWYQQKPGQAPRLLIYGASSRATGIPERFSGSGSGTDFTLTISRLESEDFAVYHCQQYGSSRALTFGGGTKVEIK
In the case of B2, the EC50 with SARS-CoV-2 RBD is 1.95 ng/mL; with SARS-CoV RBD, above 1000 ng/mL.

B3: C204 (antibody, V domains shown)
VH: EVQLLESGGGLEQPGGSLRLSCAASGFTFSTYAMSWVRQAPGKGLEWVSAISGSGAGTFYADSVKGRFTISRDNSKNTLYLQMNSLRAEDTAVYYCARESDCGSTSCYQVGWFDPWGQGTLVTVSS
VL: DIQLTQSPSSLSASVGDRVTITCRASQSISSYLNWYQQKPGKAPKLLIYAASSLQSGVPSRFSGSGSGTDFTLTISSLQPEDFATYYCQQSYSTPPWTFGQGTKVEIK
Regarding B3, the EC50 was 3.73 ng/mL with SARS-CoV-2 RBD and 9.41 ng/mL with SARS-CoV RBD.

B4: C139 (antibody, V domains shown)
VH: EVQLVESGGGVVQPGRSLRLSCAASGFTFSSYAMHWVRQAPGKGLEWVAVISYDGSNKYSADSVKGRFTISRDNSKNTLYLQMNSLRAEDTAVYYCAKGGAYSYYYYMDVWGKGTTVTVSS
VL: not shown
In the case of B4, the EC50 is 1.89 ng/mL with SARS-CoV-2 RBD and above 1000 ng/mL in the assay with SARS-CoV RBD.

B5: C120 (antibody, V domains shown)
VH: EVQLVESGGGLIQPGGSLRLSCAASGFTVSSNYMTWVRQAPGKGLEWVSLIYPGGSTYYADSVKGRFTISRDNSKNTLYLQMNSLRAEDTAVYYCAREGMGMAAAGTWGQGTLVTVSS
VL: AIRMTQSPSSLSASVGDTVTITCQASQDISKYLNWYQQKPGKAPKLLIYDASNLETGVPSRFSGSGSGTDFTFTISSLQPEDIATYYCQQYDNLPQTFGGGTKVEIK
On to B5, for which the results for the EC50 in the assay with SARS-CoV-2 RBD and with SARS-CoV RBD were 1.41 ng/mL and above 1000 ng/mL, respectively.

B6: C004 (antibody, V domains shown)
VH: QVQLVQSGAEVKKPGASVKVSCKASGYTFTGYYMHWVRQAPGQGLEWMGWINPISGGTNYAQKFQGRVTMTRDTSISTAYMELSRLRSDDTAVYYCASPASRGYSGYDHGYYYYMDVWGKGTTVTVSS
VL: AIRMTQSPSSLSASVGDRVTITCQASQDISNYLNWYQQKPGKAPKLLIYDASNLETGVPSRFSGSGSGTDFTFTISSLQPEDIATYYCQQYDNLPITFGQGTRLEIK
With B6, the half-maximal effective concentration (EC50) in the assay with SARS-CoV-2 RBD was 2.39 ng/mL; with SARS-CoV RBD, above 1000 ng/mL.

B7: C202 (antibody, V domains shown)
VH: EVQLVESGGGLVQPGGSLRLSCAASGFTVSSNYMSWVRQAPGKGLEWVSLIYSGGSTYYADSVKGRFTISRDNSKNTLYLQMNSLRAEDTAVYYCARDTLGRGGDYWGQGTLVTVSS
VL: DIQLTQSPSSLSASVGDRVTITCQASQDISNYLNWYQQKPGKAPKLLIYDASNLETGVPSRFSGSGSGTDFTFTISSLQPEDIATYYCQQYDNLPRSFGQGTKLEIK
As to B7, the results for the EC50 with SARS-CoV-2 RBD and with SARS-CoV RBD were 3.4 ng/mL and above 1000 ng/mL, respectively.

B8: C013 (antibody, V domains shown)
VH: QVQLVQSGAEVKKPGSSVKVSCKASGGTFSSYAISWVRQAPGQGLEWMGGIIPIFGTANYAQKFQGRVTITADESTSTAYMELSSLRSEDTAVYYCARGNRLLYCSSTSCYLDAVRQGYYYYYYMDVWGKGTTVTVSS
VL: EIVLTQSPATLSLSPGERATLSCRASQSVSSYLAWYQQKPGQAPRLLIYDASNRATGIPARFSGSGSGTDFTLTISSLEPEDFAVYYCQQRSNWPLTFGGGTKVEIK
As for B8, the values for the EC50 with SARS-CoV-2 RBD and with SARS-CoV RBD were 2.59 ng/mL and above 1000 ng/mL, respectively.

B9: C214 (antibody, V domains shown)
VH: QVQLVESGGGVVQPGRSLRLSCAASGFTFSSYGMHWVRQAPGKGLEWVAAIWYDGSNKHYADSVKGRFTISRDNSKNTLYLQMNSLRAEDTAVYYCARDVGRVTTWFDPWGQGTLVTVSS
VL: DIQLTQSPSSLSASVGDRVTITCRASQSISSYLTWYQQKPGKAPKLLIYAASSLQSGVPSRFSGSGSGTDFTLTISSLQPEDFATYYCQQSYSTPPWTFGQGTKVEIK
B9: the EC50 with SARS-CoV-2 RBD is 5.75 ng/mL; in the assay with SARS-CoV RBD it was above 1000 ng/mL.

B10: C140 (antibody, V domains shown)
VH: EVQLVESGGGLVQPGGSLRLSCAASGVTVSSNYMSWVRQAPGKGLEWVSLIYSGGSTFYADSVKGRFTISRDNSENTLYLQMNTLRAEDTAVYYCARDLYYYGMDVWGQGTTVTVSS
VL: DIQLTQSPSFLSASVGDRVTITCRASQGISSYLAWYQQKPGKAPKLLIYAASTLQSGVPSRFSGSGSGTEFTLTISSLQPEDFATYYCQQLNSYSYTFGQGTKLEIK
For B10, the values for the EC50 in the assay with SARS-CoV-2 RBD and in the assay with SARS-CoV RBD were 2.19 ng/mL and above 1000 ng/mL, respectively.

B11: C155 (antibody, V domains shown)
VH: EVQLVESGGGLIQPGGSLRLSCAASGFIVSSNYMSWVRQAPGKGLEWVSVIYSGGSTFYADSVKGRFTISRDNSKNTLYLQMNSLRAEDTAVYYCARDFGEFYFDYWGQGTLVTVSS
VL: EIVMTQSPATLSVSPGERATLSCRASQSVSSNLAWYQQKPGQAPRLLIYGASTRATAIPARFSGSGSGTEFTLTISSLQSEDFAVYYCQQYNNWPRTFGQGTKVEIK
With B11, the EC50 in the assay with SARS-CoV-2 RBD is 3.3 ng/mL; with SARS-CoV RBD it was above 1000 ng/mL.

B12: C029 (antibody, V domains shown)
VH: QVQLQESGPGLVKPSQTLSLTCTVSGGSISSGGYYWSWIRQHPGKGLEWIGYIYYSGSTYYNPSLKSRVTISVDTSKNQFSLKLSSVTAADTAVYYCARTMYYYDSSGSFDYWGQGTLVTVSS
VL: not shown
For the molecule B12, the EC50 in the assay with SARS-CoV-2 RBD is 4.13 ng/mL; in the assay with SARS-CoV RBD it was above 1000 ng/mL.

B13: C143 (antibody, V domains shown)
VH: EVQLVESGGGLVQPGGSLRLSCAASGFSVSTKYMTWVRQAPGKGLEWVSVLYSGGSDYYADSVKGRFTISRDNSKNALYLQMNSLRVEDTGVYYCARDSSEVRDHPGHPGRSVGAFDIWGQGTMVTVSS
VL: QSALTQPASVSGSPGQSITISCTGTSNDVGSYTLVSWYQQYPGKAPKLLIFEGTKRSSGISNRFSGSKSGNTASLTISGLQGEDEADYYCCSYAGASTFVFGGGTKLTVL
As to B13, the results for the EC50 in the assay with SARS-CoV-2 RBD and with SARS-CoV RBD were 3.66 ng/mL and above 1000 ng/mL, respectively.

B14: C114 (antibody, V domains shown)
VH: QVQLVESGGGLIQPGGSLKLSCVVSGFTVSKNYISWVRQAPGKGLEWVSVIFAGGSTFYADSVKGRFAISRDNSNNTLFLQMNSLRVEDTAIYYCARGDGELFFDQWGQGTLVTVSS
VL: QSVLTQPPSVSGAPGQRVTISCTGTSSNIGAGYDVHWYQQLPGRAPKVLISGNNIRPSEVPDRFSGSRSGTSASLAITSLQPEDEAQYYCQSYDSSLYAVFGGGTKLTVL
B14: the EC50 with SARS-CoV-2 RBD is 9.51 ng/mL; in the assay with SARS-CoV RBD, above 1000 ng/mL.

B15: C017 (antibody, V domains shown)
VH: EVQLVESGGGLVQPGRSLRLSCAASGFTFDDYAMHWVRQAPGKGLEWVSGISWNSGTIGYADSVKGRFTISRDNAKNSLYLQMNSLRAEDTAFYYCAKAGVRGIAAAGPDLNFDHWGQGTLVTVSS
VL: EIVLTQSPATLSLSPGERATLSCRASQSVSSYLAWYQQKPGQAPRLLIYDASNRATGIPARFSGSGSGTDFTLTISSLEPEDFAVYYCQQRITFGQGTRLEIK
For B15, the half-maximal effective concentration (EC50) was 1.63 ng/mL in the assay with SARS-CoV-2 RBD and above 1000 ng/mL in the assay with SARS-CoV RBD.

B16: C018 (antibody, V domains shown)
VH: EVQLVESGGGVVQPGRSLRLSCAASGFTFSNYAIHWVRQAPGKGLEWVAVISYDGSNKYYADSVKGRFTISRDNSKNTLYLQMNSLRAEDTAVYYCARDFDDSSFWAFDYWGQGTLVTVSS
VL: DIQLTQSPSSLSASVGDRVTITCRASQSIRSYLNWYQQKPGKAPKLLIYAASSLQSGVPSRFSGSGSGTDFTLTISSLQPDDFATYYCQQSYSTPPATFGQGTKLEIK
Consider B16, for which the EC50 with SARS-CoV-2 RBD is 1.53 ng/mL; with SARS-CoV RBD, above 1000 ng/mL.

B17: C151 (antibody, V domains shown)
VH: EVQLVESGGGLVKPGGSLRLSCAASGFTFSSYNMNWVRQAPGKGLEWVSCISSSSSYIYYADSVKGRFTISRDNAKNSLYLQMNSLRAEDTAVYYCARERGYDGGKTPPFLGGQGTLVTVSS
VL: NFMLTQPHSVSESPGKTVTISCTGSSGSIASNYVQWYQQRPGSAPTTVIYEDNQRPSGVPDRFSGSIDSSSNSASLTISGLKTEDEADYYCQSYDSSNYWVFGGGTKLTVL
As for B17, the EC50 is 4.3 ng/mL with SARS-CoV-2 RBD and above 1000 ng/mL with SARS-CoV RBD.

B18: C002 (antibody, V domains shown)
VH: EVQLVESGGGVVQPGRSLRLSCAASGFTFSIYGMHWVRQAPGKGLEWVAVISYDGSNKYYADSVKGRFTISRDNSKNTLYLQMNSLRAEDTAVYYCAKEGRPSDIVVVVAFDYWGQGTLVTVSS
VL: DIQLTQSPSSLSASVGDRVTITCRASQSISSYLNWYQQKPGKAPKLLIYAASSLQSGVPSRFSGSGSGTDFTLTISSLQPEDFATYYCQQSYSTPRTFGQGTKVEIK
For the molecule B18, the EC50 with SARS-CoV-2 RBD was 3.14 ng/mL; in the assay with SARS-CoV RBD, above 1000 ng/mL.

B19: C148 (antibody, V domains shown)
VH: EVQLVESGGGLVQPGGSQRLSCAASGFTVSSNYMSWIRQAPGKGLEWVSVIYSGGSAYYVDSVKGRFTISRDNSKNTLYLQMNSLRPEDTAVYYCARIANYMDVWGKGTTVTVSS
VL: EIVMTQSPATLSVSPGERATLSCRASQSVSSHLAWYQQKPGQAPRLLIYGASTRATGIPTRFSGSGSGTEFTLTISSLQSEDFAVYYCQQYNNWPPLTFGGGTKVEIK
As for B19, the figures for the EC50 in the assay with SARS-CoV-2 RBD and with SARS-CoV RBD were 64.7 ng/mL and above 1000 ng/mL, respectively.

B20: C134 (antibody, V domains shown)
VH: EVQLLESGGGLVQPGGSLRLSCAASGFTFSNYAMSWVRQAPGKGLEWVSAISGSDGSTYYAGSVKGRFTISRDNSKNTLYLQMNSLRAEDTAVYYCAKDPLITGPTYQYFHYWGQGTLVTVSS
VL: SYELTQPPSVSVAPGKTARITCGGNNIGSKSVHWYQQKPGQAPVLVIYYDSDRPSGIPERFSGSNSGNTATLTISRVEAGDEAEYHCQVWDSSSDRPGVVFGGGTKLTVL
For the molecule B20, the EC50 was 1.57 ng/mL in the assay with SARS-CoV-2 RBD and above 1000 ng/mL in the assay with SARS-CoV RBD.

B21: C118 (antibody, V domains shown)
VH: QVQLVESGGGVVQPGRSLRLSCAASGFTFSNYAMHWVRQAPGKGLEWVAVISYDGSNKYYADSVKGRFTISRDNSKNTLYLQMNSLRAEDTAIYYCASGYTGYDYFVRGDYYGLDVWGQGTTVTVSS
VL: QPVLTQSPSASASLGASVKLTCTLSSGHSSYAIAWHQQQPEKGPRYLMKLNTDGSHSKGDGIPDRFSGSSSGAERYLTISSLQSEDEADYYCQTWGTGILVFGGGTKLTVL
Consider B21, for which the EC50 is 3.45 ng/mL in the assay with SARS-CoV-2 RBD and 3.82 ng/mL in the assay with SARS-CoV RBD.

B22: C016 (antibody, V domains shown)
VH: EVQLVESGGGVVQPGRSLRLSCAASGFTFSRYGMHWVRQAPGKGLEWVAVISYDGSNKYYADSVKGRFTISRDNSKNTLYLQMNSLRAEDTAVYYCAKVTAPYCSGGSCYGGNFDYWGQGTLVTVSS
VL: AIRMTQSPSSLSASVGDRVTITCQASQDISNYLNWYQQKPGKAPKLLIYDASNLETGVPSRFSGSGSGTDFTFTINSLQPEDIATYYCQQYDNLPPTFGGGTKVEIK
On to B22, for which the EC50 in the assay with SARS-CoV-2 RBD was 7.41 ng/mL; in the assay with SARS-CoV RBD it was above 1000 ng/mL.
